# Reference: US20230381328A1, “COMPOUND FOR THE PREVENTION OR TREATMENT OF MYASTHENIA GRAVIS” (ABLEVIA BIOTECH GMBH, priority 2020, published 2023)
# Where no end group is shown, it is not given here.
# Biological target: monoclonal antibody mAB 198
# Assay: peptide microarray, fluorescence, linear peptide
row,Binder,relative signal [%]
1,RWNPADYGH,9.4
2,GGGSLRFNPAD,8.1
3,RIRWNPADY,6.8
4,HRLRWNPAD,6.7
5,RLRGNPADY,6.9
6,"NPADYDG [NPADYDG, linear mimotope]",10.3
7,"YNLKYNP [YNLKYNP, linear mimotope]",8.3
8,"LRFNPAD [LRFNPAD, linear mimotope]",37.1
9,LRWNPADYPGI,6.5
10,"YNLPWNP [YNL PWNP, linear mimotope]",7.6
11,"RPNPADY [RPNPADY, linear mimotope]",9.5
12,WRLRWNPAD,9
13,SLRFNPADY,6.5
14,SLRVNPADY,6.7
15,VPLRWNPAD,7.6
16,"NPADYGI [NPADYGI, linear mimotope]",8
17,DVRLRWNPSDY,6.8

row,Binder,relative signal [%]
1,VDCNLKYNP,6.1
2,GSLRFNPAD,9.3
3,VRHRWNPAD,8.1
4,HSLRWNPAD,6.6
5,LRPNPADYG,6.1
6,GGGSLRRNPAD,10.6
7,"LRINPAD [LRINPAD, linear mimotope]",9.2
8,"RHNPADY [RHNPADY, linear mimotope]",8.9
9,"HWNPADY [HWNPADY, linear mimotope]",7.4
10,"RGNPADY [RGNPADY, linear mimotope]",6.9
11,VDYNLKFNP,7.6
12,LRWNPADYGGF,10.6
13,"GSLRYNP [GSLRYNP, linear mimotope]",34.4
14,"CNLKYNP [CNLKYNP, linear mimotope]",6.7
15,VDCNLKFNP,6.8
16,"NPADYGN [NPADYGN, linear mimotope]",6.5

# The next lines start with the values.
row,relative signal [%],Binder
1,10.9,QWVDYNLKFNP
2,8.5,DVRLRINPADY
3,8.6,RPNPADYGG
4,10.6,SLRWNPADYHG
5,7.2,"RTNPADY [RTNPADY, linear mimotope]"
6,7.2,LRWNPADYHGI
7,8.9,GNPADYGGI
8,6.5,RLRYNPADY
9,7.1,GGGSLRYNP
10,10,DVRLRFNPADY
11,7.7,"NPDDYGH [NPDDYGH, linear mimotope]"
12,31.6,LRVNPADYG
13,9.9,"RRNPADY [RRNPADY, linear mimotope]"
14,9.4,"WNPADYH [WNPADYH, linear mimotope]"
15,6,ALRWNPADY
16,7.9,IDVRLRFNPAD
17,8.8,WNPDDYGHV
18,9.5,GSLRRNPAD
19,6.4,QWVDCNLKFNP
20,40.6,"WNPADYR [WNPADYR, linear mimotope]"

# Biological target: monoclonal antibody mAB 198
# Assay: peptide microarray, fluorescence, cyclic peptide
row,Binder,relative signal [%]
1,"LRVNPADYG (also: cyclic peptide, mode of cyclisation not given here)",45.1
2,"DVRLRINPADY (also: cyclic peptide, mode of cyclisation not given here)",31.4
3,"RINPADY (also: cyclic peptide, ring type and places not given here) [RINPADY, cyclic mimotope]",28.9
4,"RLRVNPADY (also: cyclic peptide, ring type and places not given here)",61.3
5,"VRLRWNPADYP (also: cyclic peptide, mode of cyclisation not given here)",100
6,"LRLNPADYG (also: cyclic peptide, mode of cyclisation not given here)",28.6
7,"RLRLNPADY (also: cyclic peptide, ring type and places not given here)",37.3
8,"RLNPADY (also: cyclic peptide, ring type and places not given here) [RLNPADY, cyclic mimotope]",42.3

# Second part, the binder after the results:
row,relative signal [%],Binder
1,37.5,"RFNPADY (also: cyclic peptide, ring type and places not given here) [RFNPADY, cyclic mimotope]"
2,28,"SLRINPADY (also: cyclic peptide, mode of cyclisation not given here)"
3,32.7,"RLRGNPADY (also: cyclic peptide, ring type and places not given here)"
4,30.2,"DVRLRVNPADY (also: cyclic peptide, mode of cyclisation not given here)"
5,43.2,"WIDVRLRGNPA (also: cyclic peptide, mode of cyclisation not given here)"
6,28.2,"LRRNPAD (also: cyclic peptide, mode of cyclisation not given here) [LRRNPAD, cyclic mimotope]"
